Experimental data published in patent US20140274782A1 (Stanford University, published 2014).

Columns and labels:
Experiment in all cases: ProtoArray, GST-treated control array;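 note: human protein microarray (about 9500 recombinant proteins) incubated overnight with GST alone plus SAM cofactor as the negative control for G9a SET domain methylation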
[1] = target: T1, CRYZL1-crystallin, zeta (quinone reductase)-like 1 (CRYZL1) (human, UniProt O95825 1-349, limits assumed)
T1 sequence (looked up): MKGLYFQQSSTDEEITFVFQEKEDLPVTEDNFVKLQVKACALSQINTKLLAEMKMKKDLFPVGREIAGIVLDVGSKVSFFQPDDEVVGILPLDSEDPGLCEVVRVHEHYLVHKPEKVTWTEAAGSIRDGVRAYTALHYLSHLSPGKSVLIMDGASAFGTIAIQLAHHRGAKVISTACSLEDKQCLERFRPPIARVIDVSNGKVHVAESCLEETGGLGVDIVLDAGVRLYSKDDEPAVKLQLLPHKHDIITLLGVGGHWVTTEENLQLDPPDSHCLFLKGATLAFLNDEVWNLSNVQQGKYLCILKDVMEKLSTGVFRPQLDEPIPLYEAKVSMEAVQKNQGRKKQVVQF

[2] = target: T2, CNTD1-Cyclin N-terminal domain-containing protein 1 (human, UniProt Q8N815 1-330)
T2 sequence: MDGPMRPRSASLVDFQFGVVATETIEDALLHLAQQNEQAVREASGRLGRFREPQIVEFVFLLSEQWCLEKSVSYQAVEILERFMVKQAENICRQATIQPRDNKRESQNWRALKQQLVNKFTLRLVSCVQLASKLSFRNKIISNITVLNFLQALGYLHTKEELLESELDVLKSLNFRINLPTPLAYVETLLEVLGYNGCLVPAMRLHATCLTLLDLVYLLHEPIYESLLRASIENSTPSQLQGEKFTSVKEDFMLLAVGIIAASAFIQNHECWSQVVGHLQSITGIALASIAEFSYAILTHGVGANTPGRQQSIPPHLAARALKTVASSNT

[3] = target: T3, TMED5-transmembrane emp24 protein transport domain containing 5 (TMED5) (human, UniProt Q9Y3A6 28-229, limits assumed)
T3 sequence (looked up): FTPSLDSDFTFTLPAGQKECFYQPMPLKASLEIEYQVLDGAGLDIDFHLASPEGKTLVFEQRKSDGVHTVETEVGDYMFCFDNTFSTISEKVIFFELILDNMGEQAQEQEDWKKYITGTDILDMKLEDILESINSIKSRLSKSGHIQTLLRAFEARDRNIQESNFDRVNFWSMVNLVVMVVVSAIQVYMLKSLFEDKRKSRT

[4] = target: HS3ST1-heparan sulfate (glucosamine) 3-O-sulfotransferase 1 (HS3ST1) (human, UniProt O14792 21-307, limits assumed)
Chain of HS3ST1-heparan sulfate (glucosamine) 3-O-sulfotransferase 1 (HS3ST1) (O14792 21-307 limits assumed): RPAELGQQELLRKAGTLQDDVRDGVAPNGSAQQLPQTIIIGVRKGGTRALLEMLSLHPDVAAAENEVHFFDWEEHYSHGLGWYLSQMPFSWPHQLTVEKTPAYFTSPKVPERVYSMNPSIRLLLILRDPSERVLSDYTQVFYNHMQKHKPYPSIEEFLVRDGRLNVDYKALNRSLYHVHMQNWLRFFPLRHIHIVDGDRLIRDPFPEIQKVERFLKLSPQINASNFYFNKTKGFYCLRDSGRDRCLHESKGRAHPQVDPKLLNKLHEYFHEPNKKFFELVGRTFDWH

[5] = target: TTC27-Tetratricopeptide repeat protein 27 (human, UniProt Q6P3X3 1-843)
[6] = target: T4, DIRAS1-DIRAS family, GTP-binding RAS-like 1 (DIRAS1) (human, UniProt O95057 1-198, limits assumed)
T4 sequence (looked up): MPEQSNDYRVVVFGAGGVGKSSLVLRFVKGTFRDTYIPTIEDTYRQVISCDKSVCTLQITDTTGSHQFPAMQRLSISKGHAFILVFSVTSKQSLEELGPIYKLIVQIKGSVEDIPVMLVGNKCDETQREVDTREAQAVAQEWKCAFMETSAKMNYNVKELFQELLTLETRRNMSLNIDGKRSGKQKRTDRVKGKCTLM

[7] = target: T5, LYRM7-Lyrm7 homolog (mouse) (LYRM7) (human, UniProt Q5U5X0 1-104)
T5 sequence (looked up): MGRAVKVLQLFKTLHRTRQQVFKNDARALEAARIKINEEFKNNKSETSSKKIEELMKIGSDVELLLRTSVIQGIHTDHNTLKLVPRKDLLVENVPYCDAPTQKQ

[8] = target: T6, TGDS-TDP-glucose 4,6-dehydratase (TGDS) (human, UniProt O95455 1-350)
T6 sequence (looked up): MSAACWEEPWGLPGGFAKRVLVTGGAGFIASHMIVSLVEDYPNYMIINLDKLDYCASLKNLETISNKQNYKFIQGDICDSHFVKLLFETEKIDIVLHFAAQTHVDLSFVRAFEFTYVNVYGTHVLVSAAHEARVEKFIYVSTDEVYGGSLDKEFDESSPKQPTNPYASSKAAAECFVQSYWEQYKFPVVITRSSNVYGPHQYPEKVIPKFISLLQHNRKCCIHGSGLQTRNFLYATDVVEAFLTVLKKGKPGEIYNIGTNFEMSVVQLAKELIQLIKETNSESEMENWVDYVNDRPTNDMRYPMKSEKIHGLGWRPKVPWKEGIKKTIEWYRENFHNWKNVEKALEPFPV

[9] = target: T7, CAB39L-Calcium-binding protein 39-like (human, UniProt Q9H9S4 1-337)
T7 sequence (looked up): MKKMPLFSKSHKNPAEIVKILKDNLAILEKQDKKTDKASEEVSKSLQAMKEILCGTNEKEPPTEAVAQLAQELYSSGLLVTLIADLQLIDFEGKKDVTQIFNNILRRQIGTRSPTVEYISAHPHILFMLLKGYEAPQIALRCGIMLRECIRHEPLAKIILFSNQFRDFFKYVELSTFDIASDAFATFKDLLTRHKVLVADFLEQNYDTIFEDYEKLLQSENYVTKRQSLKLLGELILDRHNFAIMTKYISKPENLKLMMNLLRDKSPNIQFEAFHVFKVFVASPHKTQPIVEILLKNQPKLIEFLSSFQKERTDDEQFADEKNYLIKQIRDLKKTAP

B1: 3× Flag-3×MBT (designed binder)
chain: EEWSSSQPATGEKKECWSWESYLEEQKAITAPVSLFQDSQAVTHNKNGFKLGMKLEGIDPQHPSMYFILTVAEVCGYRLRLHFDGYSECHDFWVNANSPDIHPAGWFEKTGHKLQPPKGYKEEEFSWSQYLRSTRAQAAPKHLFVSQSHSPPPLGFQVGMKLEAVDRMNPSLVCVASVTDVVDSRFLVHFDNWDDTYDYWCDPSSPYIHPVGWCQKQGKPLTPPQDYPDPDNFCWEKYLEETGASAVPTWAFKVRPPHSFLVNMKLEAVDRRNPALIRVASVEDVEDHRIKIHFDGWSHGYDFWIDADHPDIHPAGWCSKTGHPLQPPLGPREPSSASPGG
notes: also called Flag-tagged 3×MBT; 3xFlag-3xMBT; not shown: made by PreScission cleavage of GST-3× Flag-3×MBT
GST Average SNR [1]: -1.42 | GST Average SNR [2]: 0.567 | GST Average SNR [3]: -0.425 | GST Average SNR [4]: 0.092 | GST Average SNR [5]: 0.496 | GST Average SNR [6]: 0.988 | GST Average SNR [7]: 0.278 | GST Average SNR [8]: 1.15 | GST Average SNR [9]: 0.182
